Reference: publication PMC12772958

Molecular target: PLEKHO2
Experiment: BioID in situ proximity labelling, streptavidin pulldown, mass spectrometry (LFQ)
Conditions: U937 stable cell lines; biotin 24 h; n=3; read off a plot

An enrichment of 5.2 was found for “BirA*–MYO1F tail (from UniProt O00160) K770A; R780A” in this work.
